System: fibrin

Q: Which “digestion circle on fibrin-containing solid medium (fibrinolytic activity assay, protease at FLV 111, overnight at 37° C.)” value does the source give for “trypsin (EC3.4.21.4, manufactured by Wako Pure Chemical Industries, Ltd.)” here?
A: a digestion circle was observed for trypsin
